Results published in the supplement of paper PMC9112550, “Optimization of the antimicrobial peptide Bac7 by deep mutational scanning” (BMC Biology, 2022).

What follows are sequences tested on Escherichia coli TOP10 (assay: shrunken log2 fold change of peptide-encoding DNA abundance (4.5 h post-induction vs induction); higher = less antimicrobial activity (less host growth inhibition)). Conditions: time post-induction: 4.5 h; library: site-saturation at positions 5, 18, 19, 20.
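Also: peptides expressed intracellularly from a pBAD plasmid library in pooled LB shake-flask culture, induced with 0.3% L-arabinose, DNA abundance read by NGS, three biological replicates, DESeq2 with apeglm shrinkage.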

Row | Sequence | shrunken log2 fold change
1 | RRIRMRPPRLPRPRPRPMVSPRP | 0.0423
2 | RRIRKRPPRLPRPRPRPVHPPRP | 0.189
3 | RRIRFRPPRLPRPRPRPLEYPRP | -0.474
4 | RRIRFRPPRLPRPRPRPVNPPRP | -0.154
5 | RRIRHRPPRLPRPRPRPKWLPRP | 0.333
6 | RRIRFRPPRLPRPRPRPYDNPRP | -0.775
7 | RRIRRRPPRLPRPRPRPWGVPRP | 0.405
8 | RRIRPRPPRLPRPRPRPKIYPRP | -0.000172
9 | RRIRQRPPRLPRPRPRPYSTPRP | -0.0896
10 | RRIRDRPPRLPRPRPRPRWMPRP | -0.176
11 | RRIRARPPRLPRPRPRPSFGPRP | 1.08
12 | RRIRERPPRLPRPRPRPYSWPRP | -0.486
13 | RRIRLRPPRLPRPRPRPCAQPRP | -0.161
14 | RRIRHRPPRLPRPRPRPFCTPRP | -0.294
15 | RRIRIRPPRLPRPRPRPELEPRP | 0.0281
16 | RRIRNRPPRLPRPRPRPRWVPRP | -0.172
17 | RRIRIRPPRLPRPRPRPMKGPRP | -0.0335
18 | RRIRWRPPRLPRPRPRPIYLPRP | -0.674
19 | RRIRGRPPRLPRPRPRPAQAPRP | 0.505
20 | RRIRRRPPRLPRPRPRPNQHPRP | 0.00413
21 | RRIRMRPPRLPRPRPRPDMTPRP | -0.05
22 | RRIRGRPPRLPRPRPRPHNAPRP | 0.0947
23 | RRIRNRPPRLPRPRPRPDPQPRP | 0.0854
24 | RRIRMRPPRLPRPRPRPNDIPRP | -0.0213
25 | RRIRQRPPRLPRPRPRPHDLPRP | -0.046

Row | Sequence | shrunken log2 fold change
26 | RRIRWRPPRLPRPRPRPSVLPRP | -0.225
27 | RRIRLRPPRLPRPRPRPIWHPRP | -0.0382
28 | RRIRWRPPRLPRPRPRPDDQPRP | -0.0297
29 | RRIRYRPPRLPRPRPRPVVTPRP | -0.351
30 | RRIRIRPPRLPRPRPRPHIQPRP | -0.791
31 | RRIRKRPPRLPRPRPRPIEDPRP | -0.0345
32 | RRIRDRPPRLPRPRPRPAEFPRP | 0.149
33 | RRIRNRPPRLPRPRPRPCRAPRP | -0.0439
34 | RRIRWRPPRLPRPRPRPMCSPRP | 0.197
35 | RRIRGRPPRLPRPRPRPGIWPRP | 0.758
36 | RRIRSRPPRLPRPRPRPWEEPRP | 0.0166
37 | RRIRARPPRLPRPRPRPHHCPRP | -0.859
38 | RRIRHRPPRLPRPRPRPFFTPRP | -0.231
39 | RRIRIRPPRLPRPRPRPDYDPRP | -0.00137
40 | RRIRNRPPRLPRPRPRPESVPRP | -0.145
41 | RRIRERPPRLPRPRPRPGALPRP | 0.122
42 | RRIRRRPPRLPRPRPRPSWNPRP | -0.157
43 | RRIRIRPPRLPRPRPRPDVDPRP | -0.297
44 | RRIRLRPPRLPRPRPRPFQTPRP | -0.0347
45 | RRIRMRPPRLPRPRPRPPQCPRP | 0.566
46 | RRIRGRPPRLPRPRPRPPCRPRP | 0.637
47 | RRIRGRPPRLPRPRPRPCKRPRP | 0.0886
48 | RRIRKRPPRLPRPRPRPVALPRP | -0.0167
49 | RRIRIRPPRLPRPRPRPLVQPRP | -0.884
50 | RRIRTRPPRLPRPRPRPNGVPRP | -0.0427

Row | Sequence | shrunken log2 fold change
51 | RRIRSRPPRLPRPRPRPPIRPRP | 0.129
52 | RRIRDRPPRLPRPRPRPCEMPRP | 0.63
53 | RRIRGRPPRLPRPRPRPPMYPRP | 0.145
54 | RRIRQRPPRLPRPRPRPSRWPRP | -0.0126
55 | RRIRLRPPRLPRPRPRPYNMPRP | -0.859
56 | RRIRWRPPRLPRPRPRPGQSPRP | 0.572
57 | RRIRHRPPRLPRPRPRPDICPRP | -0.622
58 | RRIRPRPPRLPRPRPRPMRNPRP | 0.905
59 | RRIRPRPPRLPRPRPRPLFGPRP | 0.142
60 | RRIRQRPPRLPRPRPRPTYSPRP | 0.0402
61 | RRIRPRPPRLPRPRPRPALWPRP | 0.612
62 | RRIRFRPPRLPRPRPRPWQQPRP | -0.104
63 | RRIRIRPPRLPRPRPRPCMFPRP | -0.738
64 | RRIRGRPPRLPRPRPRPKTNPRP | 0.779
65 | RRIRKRPPRLPRPRPRPSVVPRP | 0.45
66 | RRIRCRPPRLPRPRPRPCYFPRP | -0.779
67 | RRIRTRPPRLPRPRPRPYNCPRP | -0.168
68 | RRIRYRPPRLPRPRPRPQKRPRP | -0.0426
69 | RRIRTRPPRLPRPRPRPNSTPRP | -0.363
70 | RRIRMRPPRLPRPRPRPSIEPRP | 0.0914
71 | RRIRNRPPRLPRPRPRPWSEPRP | 0.0632
72 | RRIRERPPRLPRPRPRPTAAPRP | 0.456
73 | RRIRPRPPRLPRPRPRPTWPPRP | 0.47
74 | RRIRSRPPRLPRPRPRPVGNPRP | -0.0399
75 | RRIRERPPRLPRPRPRPSWRPRP | -0.0751

Row | Sequence | shrunken log2 fold change
76 | RRIRRRPPRLPRPRPRPDDVPRP | 0.0443
77 | RRIRHRPPRLPRPRPRPNWKPRP | -0.0172
78 | RRIRMRPPRLPRPRPRPKPIPRP | 0.32
79 | RRIRARPPRLPRPRPRPCLGPRP | 0.0637
80 | RRIRLRPPRLPRPRPRPGRAPRP | 0.469
81 | RRIRWRPPRLPRPRPRPKQKPRP | 0.0665
82 | RRIRTRPPRLPRPRPRPKMQPRP | 0.384
83 | RRIRFRPPRLPRPRPRPRFQPRP | 0.0731
84 | RRIRHRPPRLPRPRPRPSWCPRP | -0.453
85 | RRIRIRPPRLPRPRPRPPHWPRP | 0.0943
86 | RRIRCRPPRLPRPRPRPCGPPRP | -0.104
87 | RRIRGRPPRLPRPRPRPLDIPRP | -0.0476
88 | RRIRIRPPRLPRPRPRPKVHPRP | -0.094
89 | RRIRPRPPRLPRPRPRPIPCPRP | -0.172
90 | RRIRMRPPRLPRPRPRPYHSPRP | -0.0421
91 | RRIRGRPPRLPRPRPRPGDYPRP | 0.199
92 | RRIRDRPPRLPRPRPRPNNIPRP | -0.558
93 | RRIRMRPPRLPRPRPRPHWPPRP | 1.1
94 | RRIRWRPPRLPRPRPRPIRVPRP | 0.0983
95 | RRIRNRPPRLPRPRPRPFGNPRP | 0.0247
96 | RRIRIRPPRLPRPRPRPVAPPRP | 0.244
97 | RRIRKRPPRLPRPRPRPCDYPRP | -0.0336
98 | RRIRARPPRLPRPRPRPSCSPRP | 0.0274
99 | RRIRQRPPRLPRPRPRPKKPPRP | 0.0619
100 | RRIRYRPPRLPRPRPRPVCFPRP | -0.674

Row | Sequence | shrunken log2 fold change
101 | RRIRYRPPRLPRPRPRPKTNPRP | -0.516
102 | RRIRGRPPRLPRPRPRPVINPRP | 0.199
103 | RRIRDRPPRLPRPRPRPYAYPRP | 0.0345
104 | RRIRHRPPRLPRPRPRPTSGPRP | -0.0493
105 | RRIRKRPPRLPRPRPRPAKNPRP | 0.487
106 | RRIRQRPPRLPRPRPRPTGHPRP | 0.00113
107 | RRIRARPPRLPRPRPRPLHFPRP | 0.211
108 | RRIRFRPPRLPRPRPRPVDLPRP | -0.102
109 | RRIRWRPPRLPRPRPRPCISPRP | 0.169
110 | RRIRQRPPRLPRPRPRPSEPPRP | 0.0286
111 | RRIRTRPPRLPRPRPRPWLEPRP | 0.218
112 | RRIRSRPPRLPRPRPRPFAYPRP | -0.348
113 | RRIRKRPPRLPRPRPRPAMAPRP | 0.664
114 | RRIRSRPPRLPRPRPRPCAGPRP | -0.0708
115 | RRIRARPPRLPRPRPRPRHCPRP | -0.0733
116 | RRIRGRPPRLPRPRPRPQCWPRP | 0.623
117 | RRIRGRPPRLPRPRPRPNLDPRP | 0.265
118 | RRIRHRPPRLPRPRPRPWVGPRP | 0.0323
119 | RRIRARPPRLPRPRPRPHLQPRP | 0.439
120 | RRIRDRPPRLPRPRPRPWVKPRP | 0.0766
121 | RRIRARPPRLPRPRPRPNYPPRP | -0.144
122 | RRIRRRPPRLPRPRPRPWALPRP | -0.0259
123 | RRIRLRPPRLPRPRPRPCQYPRP | -0.448
124 | RRIRHRPPRLPRPRPRPGDPPRP | 0.219
125 | RRIRRRPPRLPRPRPRPYDPPRP | 0.0185

Row | Sequence | shrunken log2 fold change
126 | RRIRPRPPRLPRPRPRPSMSPRP | -0.409
127 | RRIRSRPPRLPRPRPRPNTYPRP | -0.232
128 | RRIRGRPPRLPRPRPRPSSAPRP | 0.592
129 | RRIRKRPPRLPRPRPRPCTVPRP | 0.23
130 | RRIRVRPPRLPRPRPRPPANPRP | 0.3
131 | RRIRDRPPRLPRPRPRPRGYPRP | 0.03
132 | RRIRMRPPRLPRPRPRPGTQPRP | 0.407
133 | RRIRPRPPRLPRPRPRPQRVPRP | 0.202
134 | RRIRARPPRLPRPRPRPMVHPRP | 0.0572
135 | RRIRCRPPRLPRPRPRPVECPRP | -0.142
136 | RRIRQRPPRLPRPRPRPKLKPRP | -0.0236
137 | RRIRERPPRLPRPRPRPSWSPRP | -0.0285
138 | RRIRFRPPRLPRPRPRPTTWPRP | 0.0564
139 | RRIRVRPPRLPRPRPRPNNVPRP | -0.117
140 | RRIRNRPPRLPRPRPRPHCYPRP | 0.0691
141 | RRIRRRPPRLPRPRPRPPLQPRP | 0.682
142 | RRIRWRPPRLPRPRPRPNLVPRP | -0.0198
143 | RRIRCRPPRLPRPRPRPIHDPRP | -0.264
144 | RRIRSRPPRLPRPRPRPFQKPRP | -0.00295
145 | RRIRCRPPRLPRPRPRPGYEPRP | -0.00917
146 | RRIRNRPPRLPRPRPRPLPDPRP | -0.0552
147 | RRIRNRPPRLPRPRPRPTNAPRP | -0.182
148 | RRIRNRPPRLPRPRPRPDCEPRP | 0.0108
149 | RRIRNRPPRLPRPRPRPKNIPRP | -0.483
150 | RRIRMRPPRLPRPRPRPLRQPRP | -0.214
